According to paper PMC8384837, “Expanding the binding specificity for RNA recognition by a PUF domain”:

Tests used:
[1] = target: PUF variant QFR/VFQ (human, UniProt Q14671 828-1176, S863Q;R864F;Q867R;N899V;Y900F); assay: EMSA; 10 mM HEPES pH 7.3, 50 mM NaCl, 2 mM DTT, 0.05% Tween 20, 0.1 mg/ml BSA, 0.1 mg/ml yeast tRNA; ~10 nM RNA, 0-1 uM protein, 1 h on ice; 1.2% agarose gel, 1x TBE, room temperature; conditions: protein: recombinant; tags: N-terminal GST (pGEX-6P-1) removed by HRV3C protease; label: 5' 32P
PUF variant QFR/VFQ, sequence (Q14671 828-1176 S863Q/R864F/Q867R/N899V/Y900F): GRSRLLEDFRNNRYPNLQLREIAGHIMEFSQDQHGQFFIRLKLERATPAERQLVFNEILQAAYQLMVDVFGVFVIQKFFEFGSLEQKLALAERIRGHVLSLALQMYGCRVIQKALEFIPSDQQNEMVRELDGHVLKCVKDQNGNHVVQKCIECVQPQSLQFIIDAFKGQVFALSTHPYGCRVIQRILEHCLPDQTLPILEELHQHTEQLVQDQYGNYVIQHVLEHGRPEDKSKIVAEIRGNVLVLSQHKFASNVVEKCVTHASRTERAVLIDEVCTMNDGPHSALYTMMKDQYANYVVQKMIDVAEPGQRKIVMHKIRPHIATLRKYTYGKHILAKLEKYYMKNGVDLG

[2] = target: PUF design 2 (human, UniProt Q14671 828-1176, C935T;R936H;Q939E;N971T;H972F;Q975R); assay: as above; conditions: protein: recombinant; tags: N-terminal GST (pGEX-6P-1) removed by HRV3C protease; label: 5' 32P
PUF design 2, sequence (Q14671 828-1176 C935T/R936H/Q939E/N971T/H972F/Q975R): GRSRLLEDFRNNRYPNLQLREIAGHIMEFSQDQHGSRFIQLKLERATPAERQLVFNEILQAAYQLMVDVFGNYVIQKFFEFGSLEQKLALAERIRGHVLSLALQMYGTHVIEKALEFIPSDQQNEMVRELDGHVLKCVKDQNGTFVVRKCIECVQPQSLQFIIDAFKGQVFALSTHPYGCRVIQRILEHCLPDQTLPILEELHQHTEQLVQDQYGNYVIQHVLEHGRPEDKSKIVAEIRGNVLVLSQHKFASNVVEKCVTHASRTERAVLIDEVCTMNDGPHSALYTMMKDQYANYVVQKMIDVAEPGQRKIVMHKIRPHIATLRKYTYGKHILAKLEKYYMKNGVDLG

GGUAAGUGUAAAUAGUCUGCAU (ssRNA) [wild-type NRE RNA]: no binding [1]; no binding [2].

Binder GGUAAGUGUACGUAGUCUGCAU (ssRNA) [design 2 target RNA] has a Kd [2] of roughly 45 nM.

GGUAAGUGUAAAACGUCUGCAU (ssRNA) [QFR/VFQ target RNA] was tested, and the Kd [1] was roughly 110 nM.
